Laboratory results as given in patent US7718626B2, “ErbB3 binding protein compositions and methods of use” (University of Maryland, Baltimore, priority 2005, dated 2010).

Legend:
Format in all cases: cell-based, human
[1] = tested on: androgen-responsive genes in LNCaP cells; assay: Microarray gene expression profiling of LNCaP cells stably transfected with ebp1; conditions: ebp1-overexpressing LNCaP cells vs controls
Description: Microarray Analysis: First and second strand cDNA were synthesized from 5-15 μg of total RNA at Genome Explorations (Nashville, Tenn.) using the SuperScript Double-Stranded cDNA Synthesis Kit (Gibco Life Technologies, Gaithersburg, Md.) and an oligo-dT24-T7 (5′-GGCCAGTGAATTGTAATACGACTCACTATAGGGAGGCGG-3′) (SEQ ID NO: 3) primer according to the manufacturer's instructions. cRNA was synthesized labeled with biotinylated UTP and CTP by in vitro transcription using the T7 promoter-coupled, double-stranded cDNA as template and the T7 RNA Transcript Labeling Kit (ENZO Diagnostics Inc., Farmingdale, N.Y.). The fragmented cRNA was hybridized for U133A oligonucleotide arrays (Affymetrix, Santa Clara, Calif.) containing ˜33,000 full-length annotated genes, together with additional probe sets designed to represent EST sequences. The arrays were then stained with phycoerythrein-conjugated streptavidin (Molecular Probes, Eugene, Oreg.), and the fluorescence intensities were determined using a laser confocal scanner (Hewlett-Packard, Palo Alto, Calif.). The scanned images were analyzed using Microarray software (Affymetrix). Sample loading and variations in staining were standardized by scaling the average of the fluorescent intensities of all genes on an array to constant target intensity for all arrays used. The signal intensity for each gene was calculated as the average intensity difference, represented by [E(PM−MM)/(number of probe pairs)], where PM and MM denote perfect-match and mismatch probes. Data analysis was conducted using Microarray Suite 5.0 (Affymetrix) following user guidelines. Only genes with a minimum expression level of 500 were included in this analysis. […] AR-regulated genes include the Androgen Receptor (AR), PSA (kallikrein 3), Kallikrein 2, POV-1, TMPRSS2, and prostate-derived factor.
Ectopic expression of Ebp1 downregulates androgen-regulated genes: Gene expression profiling of LNCaP cells stably transfected with ebp1 was used to determine the range of androgen-dependent genes affected by Ebp1 overexpression. These cells overexpress Ebp1 protein between two- and three-fold (Zhang et al., 2002, Repression of Androgen Receptor Mediated Transcription by the ErbB-3 Binding Protein Ebp1, Oncogene, 21: 5609-5618). Changes in gene expression were measured using microarray analysis of 33,000 transcripts on the Affymetrix U133A chip. To compile a list of differentially regulated genes, only those genes that were activated or repressed at least 3-fold (p <0.05, 500 minimum expression units) were included. […] Forty-one genes were induced and 126 were repressed. Seventy-two of these genes have HUGO approved names. […] These include the Androgen Receptor (3.7 fold decrease), PSA (3.7 fold decrease) as previously reported (Zhang et al., 2002, Repression of Androgen Receptor Mediated Transcription by the ErbB-3 Binding Protein Ebp1, Oncogene, 21: 5609-5618), Kallikrein 2 (3.2 fold decrease), POV-1 (5.0 fold decrease), TMPRSS2 (3.2 fold decrease), and prostate-derived factor (3.2 fold decrease). The Kallikrein 2 gene is regulated by AR, predominantly expressed in prostate tissue, secreted by LNCaP cells, and 78% homologous to PSA. […] The TMPRSS2 gene is androgen-regulated and also highly expressed in prostate and prostate cancer (Afar et al., 2001, Catalytic Cleavage of the Androgen-Regulated TMPRSS2 Protease Results in its Secretion by Prostate and Prostate Cancer Epithelia, Cancer Res., 61:1686-1692).

[2] = tested on: secreted PSA of LNCaP cells; assay: PSA secretion in conditioned media by ELISA; conditions: ebp1 transfectants vs controls
Description: Measurement of PSA levels: Serum PSA levels were determined using a PSA ELISA kit from DSL, Inc (Webster, Tex.). […] Following a 1 h incubation and extensive washing of the plate, the wells were treated for 30 min with a second anti-PSA antibody labeled with horseradish peroxidase. After washing, the wells were treated with a tetramethylbendizine substrate for 10 min, and absorbance was read at 450 nm. The results of the microarray analysis were validated using real-time quantitative reverse-transcription PCR, Western blot, and ELISA methods. […] The expression of POV-1 mRNA and protein were each decreased about two-fold. PSA secretion in the conditioned media of ebp1 and vector control cells was assessed by ELISA. […] Finally, […]-2 mRNA expression was decreased approximately 40%.

LNCaP cells [3] = assay: Soft agar colony growth assay; conditions: highest cell concentration tested, ten days
Description: (§1) Cell Growth Assays: To measure growth in complete media, cells (2×10^4) were seeded in triplicate in individual wells of 12-well tissue culture plates in RPMI-1640 with 10% FBS and cultured for the indicated number of days. Cells were trypsinized, stained with Trypan Blue (0.4%), and counted in a hemacytometer. For soft agar growth assays, increasing concentrations of cells (as indicated) were plated in 35 mm petri dishes in complete media and 0.3% Difco Bacto Agar over an 0.5% agar layer. Colonies were counted after 10 days of incubation. For studies assessing the effect of dihydrotestosterone (DHT) on cell growth, cells (2×10^4) were plated in 12-well plates in complete media. After a 24-hour attachment period, the medium was replaced with steroid-free medium [phenol red-free RPMI 1640 and 5% charcoal-stripped FBS (Sigma)] for 48 hours. The final concentration of testosterone in the steroid-reduced media was less than 5 pM. After 48 hours of steroid depletion, cells were re-fed with fresh steroid-reduced medium with or without the indicated concentrations of DHT and/or bicalutamide (10 μM), and total cell numbers were assessed 7 days later.
The soft agar growth of ebp1 transfectants was also examined. LNCaP vector controls and ebp1 transfectants were seeded at concentrations between 1×10^4 and 1×10^5 cells per dish and colony growth in soft agar assessed ten days later. […]

LNCaP cells [4] = assay: Growth in steroid-reduced medium with DHT and/or bicalutamide; conditions: ebp1 transfectants (vector controls approximately 70%)
Description: as §1, with “For soft agar growth assays, increasing concentrations of cells (as indicated) were plated in 35 mm petri dishes in complete media and 0.3% Difco Bacto Agar over an 0.5% agar layer.” left out

B1: Ebp1: ErbB3 binding protein (SEQ ID NO: 2), tested by stable ectopic expression (ebp1 transfection) in LNCaP cells (protein)
chain: MSGEDEQQEQTIAEDLVVTKYKMGGDIANRVLRSLVEASSSGVSVLSLCEKGDAMIMEETGKIFKKEKEMKKGIAFPTSISVNNCVCHFSPLKSDQDYILKEGDLVKIDLGVHVDGFIANVAHTFVVDVAQGTQVTGRKADVIKAAHLCAEAALRLVKPGNQNTQVTEAWNKVAHSFNCTPIEGMLSHQLKQHVIDGEKTIIQNPTDQQKKDHEKAEFEVHEVYAVDVLVSSGEGKAKDAGQRTTIYKRDPSKQYGLKMKTSRAFFSEVERRFDAMPFTLRAFEDEKKARMGVVECAKHELLQPFNVLYEKEGEFVAQFKFTVLLMPNGPMRITSGPFEPDLYKSEMEVQDAELKALLQSSASRKTQKKKKKKASKTAENPTSGETLEENEAGD
modifications: Homo Sapien
Androgen Receptor expression, fold decrease [1]: 3.7 fold decrease
Kallikrein 2 expression, fold decrease [1]: 3.2 fold decrease
POV-1 expression, fold decrease [1]: 5.0 fold decrease
PSA expression, fold decrease [1]: 3.7 fold decrease
TMPRSS2 expression, fold decrease [1]: 3.2 fold decrease
prostate-derived factor expression, fold decrease [1]: 3.2 fold decrease
secreted PSA protein downregulation [2]: 10 fold
decrease of colony growth in soft agar (LNCaP cells [3]): approximately 90%
growth inhibition by the withdrawal of androgens (LNCaP cells [4]): 60%
